{"source": "patent US20090220470A1", "key": {"[1]": {"target": "poly-ubiquitylated proteins (of cell lysates)", "test": "cell-based or functional assay"}, "[2]": {"target": "K48 tetra-ubiquitin (Boston Biochem) (UniProt P0CG48)", "test": "SPR (BiaCore 3000), dissociation followed over two hours (data not shown)"}, "[3]": {"target": "K63 tetra-ubiquitin (Boston Biochem) (UniProt P0CG48)", "test": "SPR (BiaCore 3000), dissociation followed over two hours (data not shown)"}, "[4]": {"target": "K48 tetra-ubiquitin (Boston Biochem) (UniProt P0CG48)", "test": "ratio of the literature Kd of the single UBA (Raasi et al.) to the SPR Kd of the TUBE"}, "[5]": {"target": "K63 tetra-ubiquitin (Boston Biochem) (UniProt P0CG48)", "test": "ratio of the literature Kd of the single UBA (Raasi et al.) to the SPR Kd of the TUBE"}, "[6]": {"target": "Mono-ubiquitin (Sigma Aldrich) (UniProt P0CG48)", "test": "SPR (BiaCore 3000), captured via GST on anti-GST chip, mono-ubiquitin injected, steady state"}, "[7]": {"target": "K48 tetra-ubiquitin (Boston Biochem) (UniProt P0CG48)", "test": "SPR (BiaCore 3000), dissociation phase fitted with a double exponential, first (rapid) phase"}, "[8]": {"target": "K63 tetra-ubiquitin (Boston Biochem) (UniProt P0CG48)", "test": "SPR (BiaCore 3000), dissociation phase fitted with a double exponential, first (rapid) phase"}, "[9]": {"target": "K48 tetra-ubiquitin (Boston Biochem) (UniProt P0CG48)", "test": "SPR (BiaCore 3000), dissociation phase fitted with a double exponential, second (slow) phase"}, "[10]": {"target": "K63 tetra-ubiquitin (Boston Biochem) (UniProt P0CG48)", "test": "SPR (BiaCore 3000), dissociation phase fitted with a double exponential, second (slow) phase"}, "[11]": {"target": "K48 tetra-ubiquitin (Boston Biochem) (UniProt P0CG48)", "test": "SPR (BiaCore 3000), GST-TUBE captured on anti-GST chip at low density, tetra-ubiquitin injected, steady-state fit"}, "[12]": {"target": "K63 tetra-ubiquitin (Boston Biochem) (UniProt P0CG48)", "test": "SPR (BiaCore 3000), GST-TUBE captured on anti-GST chip at low density, tetra-ubiquitin injected, steady-state fit"}, "[13]": {"target": "Mono-ubiquitin (Sigma Aldrich) (UniProt P0CG48)", "test": "SPR (Biacore), GST fusion captured on anti-GST antibody chip (150-220 RU), mono-ubiquitin injected in a 2-fold dilution series, steady-state fit"}, "[14]": {"target": "Mono-ubiquitin (Sigma Aldrich) (UniProt P0CG48)", "test": "SPR (BIACORE 3000), GST-p62 UBA polypeptide captured on anti-GST chip, ubiquitin injected"}, "[15]": {"target": "Mono-ubiquitin (Sigma Aldrich) (UniProt P0CG48)", "test": "SPR (BIACORE 3000), GST-p62 UBA polypeptide captured on anti-GST antibody chip, ubiquitin injected"}}}
{"substance": "hHR23A TUBE (TUBE comprising 4 hHR23a UBA-1 domains, GST fusion with His6 and SV5 tags) (designed binder)", "values": [{"measurement": "lowest TUBE concentration at which protection from de-ubiquitylation was detectable", "setting": "[1]", "value": 0.17, "unit": "µM"}, {"measurement": "half-life", "setting": "[2]", "value": "> 5", "unit": "h"}, {"measurement": "half-life", "setting": "[3]", "value": "> 5", "unit": "h"}, {"measurement": "Kd(UBA)/Kd(TUBE)", "setting": "[4]", "value": 663, "unit": "fold"}, {"measurement": "Kd(UBA)/Kd(TUBE)", "setting": "[5]", "value": 943, "unit": "fold"}, {"measurement": "binding stoichiometry (molar ratio ubiquitin:TUBE) (ubiquitin per TUBE)", "setting": "[6]", "value": 4}, {"measurement": "koff", "setting": "[7]", "value": 0.03, "unit": "s⁻¹"}, {"measurement": "t1/2 (first dissociation phase)", "setting": "[7]", "value": 25, "unit": "s"}, {"measurement": "koff", "setting": "[8]", "value": 0.03, "unit": "s⁻¹"}, {"measurement": "t1/2 (first dissociation phase)", "setting": "[8]", "value": 25, "unit": "s"}, {"measurement": "koff", "setting": "[9]", "value": 0.0004, "unit": "s⁻¹"}, {"measurement": "koff", "setting": "[10]", "value": 0.0004, "unit": "s⁻¹"}, {"measurement": "Kd", "setting": "[11]", "value": 9.35, "unit": "nM"}, {"measurement": "Kd", "setting": "[12]", "value": 4.88, "unit": "nM"}, {"measurement": "Kd", "setting": "[13]", "value": 65.8, "unit": "µM"}]}
{"substance": "Ubiquilin1 TUBE (TUBE comprising 4 ubiquilin-1 UBA domains, GST fusion with His6 and SV5 tags) (designed binder)", "values": [{"measurement": "lowest TUBE concentration at which protection from de-ubiquitylation was detectable", "setting": "[1]", "value": 0.17, "unit": "µM"}, {"measurement": "half-life", "setting": "[2]", "value": "> 5", "unit": "h"}, {"measurement": "half-life", "setting": "[3]", "value": "> 5", "unit": "h"}, {"measurement": "Kd(UBA)/Kd(TUBE)", "setting": "[4]", "value": 84, "unit": "fold"}, {"measurement": "Kd(UBA)/Kd(TUBE)", "setting": "[5]", "value": 833, "unit": "fold"}, {"measurement": "binding stoichiometry (molar ratio ubiquitin:TUBE) (ubiquitin per TUBE)", "setting": "[6]", "value": 4}, {"measurement": "koff", "setting": "[7]", "value": 0.03, "unit": "s⁻¹"}, {"measurement": "t1/2 (first dissociation phase)", "setting": "[7]", "value": 25, "unit": "s"}, {"measurement": "koff", "setting": "[8]", "value": 0.03, "unit": "s⁻¹"}, {"measurement": "t1/2 (first dissociation phase)", "setting": "[8]", "value": 25, "unit": "s"}, {"measurement": "koff", "setting": "[9]", "value": 0.0004, "unit": "s⁻¹"}, {"measurement": "koff", "setting": "[10]", "value": 0.0004, "unit": "s⁻¹"}, {"measurement": "Kd", "setting": "[11]", "value": 14.3, "unit": "nM"}, {"measurement": "Kd", "setting": "[12]", "value": 0.6, "unit": "nM"}, {"measurement": "Kd", "setting": "[13]", "value": 30.2, "unit": "µM"}]}
{"substance": "p62×4 (four domains of the p62-UBA fused to GST; TUBE comprising 4 p62 UBA domains) (designed binder)", "values": [{"measurement": "fold more binding (against one UBA copy)", "setting": "[14]", "value": 6, "unit": "fold"}, {"measurement": "N (stoichiometry of Ubiquitin-UBA interaction)", "setting": "[15]", "value": 5.8}]}
